Data on 16 molecules can be found in patent US20240101646A1 (published 2024).

Substitutions are numbered along the chain they refer to.

B1: 5317-7 (antibody, V domains shown)
VH: EVQLVGSGGGLVQPGGSLRLSCAASGFTFSTYWMSWVRQAPGKGLEWVADIKQDGSEKYYVDSVKGRFTISRDNAKNSLYLQMNSLRVEDTALYYCARGGLWGTFDYWGQGTLVTVSS
VL: EIVLTQSPGTLSLSPGERASLSCRASQSVSSSYLAWYQQKPGQAPRLLIYGASSRATGIPDRFSGSGSGTDFTLTISRLEPEDFAVYWCQQFAYSLYTFGQGTKLEIK
B2: 53182-9 (antibody, V domains shown)
VH: EVQLVESGGGLILPGGSLRLSCAASGVTVSSNYMNWVRQAPGKGLEWVSVIYSGGSTFYADSVKGRFTISRDNSKNTLYLQMNSLRAEDTAVYYCARGGWPSGDTFDIWGQGTMVTVSS
VL: DIQLTQSPSFLSASVGDRVTITCRASQGISSYLAWYQQKPGKAPKLLIYAASTLQSGVPSRFSGSGSGTEFTLTISSLQPEDFATYYCQQLNSYPEITFGPGTKVDIK
B3: 53182-1 (antibody, V domains shown)
VH: B2 VH with L13Q, A23T, V27I, S31T, N35T, V50I, F58Y, E88D, A96T, Q111L
VL: B2 VL with A50G
B4: 5317-5 (antibody, V domains shown)
VH: QVQLVQSGAEVKKPGSSVKVSCKASGGTFSSYPITWVRQAPGQGFEWMGKIIPILGIADYAQSFQGRVTITADKSTTTAYMELSSLRSEDTAVYYCAREKGYSSSSSATYYLDFWGQGTLVTVSS
VL: QSVLTQPPSVSGAPGQRVTISCTGSNSNIGAGYDVHWYQQLPGTAPRLLIYRNSNRPSGVPDRFSGSKSGTAASLAISGLQAEDEADYYCQSYDSSLTALVFGGGTKLTVL
B5: 5317-2 (antibody, V domains shown)
VH: QVQLVQSGAEVKKPGSSVKVSCKVSGGTFSSYTIIWVRQAPGQGLEWMGRVIPVVHITHYAQRFRGRVTISADKSTSTAYMELSSLRSEDTAVYYCARGLWFGDSETVWFDPWGQGTLVTVSS
VL: DIQMTQSPSSLSASVGDRVTITCRASQNITYYLNWYQQKPGKAPNLLIYTASSLQSGVPSRFIGSGSGTDFTLTISSLQPEDFATYCCQQSYSTPPTFGQGTKVEIR
B6: 53182-3 (antibody, V domains shown)
VH: EVHLVESGGGLVQPGGSLRLSCAASGFTVSSNYMSWVRQAPGKGLEWVSVIYSGGNTYYADSVKGRFTISRDNSKNTLYLQMNSLRAEDTAVYYCARDRRIIGYYFGMDVWGRGTTVTVSS
VL: QSALTQPASVSGSPGQSITISCTGTSSYVGSFDLVSWYQQHPGKAPKLMIYEVSKRPSGVSNRFSGSKSGNTASLTISGLQAEDEADYYCCPYADTWVFGGGTKLTVL
B7: 53182-8 (antibody, V domains shown)
VH: QLQLQESGPGLVKPSETLSLTCTVSGGSISSSSYYWGWIRQPPGKGLEWIGTIYYSGSTYYNPSLKSRVTISVDTSKTQFSLKLSSVTAADTAVYYCARDRRGGGWTASFDFWGQGTLVTVSS
VL: not shown
B8: 53182-6 (antibody, V domains shown)
VH: EVQLVESGGGLVQPGGSLRLSCAASGFTVSDNYMSWVRQAPGKGLQWVSVIYSGGNTYYADFVKGRFNITRDDSKNMLYLQMNSLRREDTAVYYCVRDRRIVGYYFGLDVWGQGTTVTVFS
VL: QSALTQPASVSGSPGQSITISCTGTSSDVRNYNLVSWYQQHPGKAPKLMIFEDSKRPSGVSNRFSGSKSGNTASLTIAGLQPEDEADYYCCSYATTWVFGGGTKVTVL
B9: 53182-11 (antibody, V domains shown)
VH: EVQLVEFGGGLVQPGRSLRLSCATSGFTFEDFDMHWVRQAPGKGLEWVSGSTWNSGIIGYADSVKGRFTTSRDNAKNSLYMQMNNLREEDTALYYCAKDIGRYDHYNIFGRVGGAFDIWGQGTMVTVSS
VL: DIQMTQSPSSLSASVGDRVTISCQTSQDISVSLNWYQQKPGKPPKVLIYDASNLEAGAPSRFSGSGSGTDFTFTISSLQPEDIATYYCQHYDNLPRFGPGTKVDIK
B10: 5317-6 (antibody, V domains shown)
VH: QLQLQESGPGLVKPSETLSLTCTVSGASISSSSYYWGWIRQPPGKGLEWIGTMYYRGSTDYNPSLKSRVTISVDTSKNQFSLRLSSVTAADTAVYYCARRVPGDYYCLDVWGKGTTVTVSS
VL: DIQLTQSPSSLSASVGDRVTVTCRASQSISDYLNWYQQKPGKAPKLLIYAASSLQTGVPPRFSGSGSGTDFTLTISSLQPEDFATYYCQQSFSARVPTFGGGTKVESK
B11: 5317-3 (antibody, V domains shown)
VH: EVQLVESGGGLVQPGGSLRLSCSASGFTFSSYPMYWVRQAPGIGLEYVSGITDNGGSTYYGDSVKGRFTISRDNSKNTLNLQMNNLRTEDTAVYYCVKGKIQLWLGADYWGQGTLVTVSS
VL: DIQMTQSPSSLSASVGDRVTITCRANQTISSYLNWYQQKPGKAPKVLIFAASSLEGGVPSRFSGSGSGTDFTLTISSLQPEDFATYSCQQSYNTPWTFGQGTKVEIK
B12: antibody 5317-4 (antibody, V domains shown)
VH: QVQLRLWGAGLLKPSETLSLTCAVSGGSFIDYYWTWIRQPPGKGLEWIGEINHFGGSGYNPSLKSRVSISVDTSKNQFSLRLNSVTAADTAIYYCARKPLLHSSVNPGAFDIWGQGTMLTVSS
VL: EIVLTQSPGTLSLSPGERAALSCRASQSVAGTYLAWYQQKPGQAPRLLIYGASSRATGIPDRFSGSGSGTDFTLTISRLEPEDFAVYYCQQYATSPRTFGQGTQLEIR
B13: 5317-1 (antibody, V domains shown)
VH: QMQLVQSGPEVKKPGTSVKVSCKASGFTFSTSVVQWVRQPRGQRLEWIGGIVVGRGNTKYAQNFQERVTITRDMSTSTAYMELSNLRSEDTAVYYCAADPFADYWGQGTLVTVSS
VL: not shown
B14: 53182-4 (antibody, V domains shown)
VH: QITLEESGPTLVTPTQTLTLTCSFSGFSLDTIGVAVAWIRQPPGKALEWLGTVFWDYDKRYSPPLSSRLTVIKDTSQQYVVLRLTDVGPGDTATYYCARLLIEHDAFDIWGQGAVVIVSS
VL: DVVVTQSPVSLPATPGEPASISCRASQSLLHRNGKHYLHWYLQRPGQSPQLLIYLGSNRASGVPDRFSGSGSGTVFSLKISRVEAEDVGIYYCMQALHFPYTFGQGTKLDIK
B15: 53181-1 (antibody, V domains shown)
VH: QVQLVQSGAEVKKPGASVKVSCKASGYTFTNYVLTWVRQAPGQGLEWMGWISAYNGSTNYAQNLQGRVTMTTDTSTSTAYMELRSLRSDDTAVYYCARDPASYYDFWSGYVDYYYYGMDVWGQGTTVTVSS
VL: ELVLTQSPGTLSLSPGERATLSCRASQSVSSSYLAWYQQKPGQAPRLLIYSASSRATGIPDRFSGSGSGTDFTLTISRLEPEDFAVYYCQQYGNSRLTFGPGTKVDIK
B16: 53181-2 (antibody, V domains shown)
VH: B15 VH with N31S, V33S, L34I, T35N, N63K, F106L
VL: B15 VL with L2I, S51G, Q90H, Q91H, N94S

The target in the first test is SARS-CoV-2 RBD (SARS-CoV-2, UniProt P0DTC2 319-541).
As usually defined, the Kd is the free concentration of one partner at which half of the binding sites on the other are occupied at equilibrium, for simple one-to-one binding. Lower therefore signals higher affinity. In turn, B1 displayed a Kd of 10.5 nM.
The molecule B2 returned a dissociation constant Kd of 0.0475 nM.
As for B3, the Kd was 2.81 nM.
The same measure, in the same setting: to B4 belongs 0.0826 nM; to B5, 1.95 nM; to B6, 8.32 nM.
Same read-out and setting: to B7 belongs 16.5 nM; to B8, 0.935 nM.
B9 yielded an equilibrium dissociation constant (Kd) of 3.18 nM.
On the same count and under the same terms, with B10 the figure was 1.66 nM; with B11, 1.92 nM; with B12, 1.78 nM.
Turning to B13, the Kd worked out at 0.0434 nM.

For a further test, the target named is SARS-CoV-2 NTD (SARS-CoV-2, UniProt P0DTC2 14-305).
In the case of B14, the Kd came to 2.28 nM.
Same read-out and setting: to B15 belongs 1.17 nM; to B16, 31.3 nM.
